Experiment [1] deals with smooth muscle cells. The experiment can be described thus: Effect of antistasin and tick anticoagulant peptide on factor Xa induced mitogenesis of smooth muscle cells. The note with it: FIG. 2. The format is cell-based, rat. How it is done: Primary smooth muscle cell cultures were prepared from the thoracic and abdominal aorta of 2-3 month old Wistar rats essentially using the procedure of Reilly, C. F. (1990) J. Cell Physiol. 142,342 (1990). After removing as much fat and adherent adventitia as possible with scissors and forceps, the tissue was finely minced, enzymatically dissociated with successive 37° C. incubations in HBSS containing collagenase (Sigma, 0.5 mg/ml for 15 min.), then elastase (Sigma, 0.125 mg/ml for 30 min.) and again collagenase (60 min.). […] Cells were grown in Dulbecco's Minimal Essential Medium (DMEM) containing 10% fetal bovine serum (FBS) with antibiotics. […] Using a monoclonal antibody to alpha actin (Sigma Chemical Company, St. Louis, Mo.), about 60-80% (preparation dependent) of these confluent cells stained positive for this smooth muscle cell marker. After 10 days in culture, the cells were dissociated with trypsinethylene diamine tetraacetate (EDTA), split 1:10 and subcultured in the above medium. At confluence the cells were transferred to DMEM containing 0.1 % FBS for a 24 hour period before using them for assay. […]
(§1) The prepared rat smooth muscle cells were seeded in Falcon 24 multiwell plates (10^5 cells/well) and cultured at 37° C., in a 5% CO2 atmosphere in 1 ml DMEM containing 10% FBS. […] The cells were washed twice with cold phosphate buffered saline (PBS), treated twice with 5% trichloroacetic acid (TCA) for 5 min., dissolved with 0.25N NaOH (0.4 ml) incubated at 37° C. for 60 min., mixed with 5 ml Ecolume (ICN Biomedicals, Costa Mesa, Calif.), and their radioactivity determined in a scintillation counter. […] Smooth muscle cell mitogenic activity produced by exogenous agents is expressed as % relative mitogenic activity which is defined as: [formula] […]
The effects of antistasin and tick anticoagulant peptide on factor Xa induced mitogenesis of smooth muscle cells were tested using the method shown in Example 4. […] At the end of the 24 hour incubation, ^3 H-thymidine incorporation into DNA was monitored and smooth muscle cell mitogenic activity was assessed as described in Example 4.

The test system of experiment [2] is smooth muscle cells. As to the kind of experiment: Effect of factor Xa inhibitors on human protein S and bovine factor X induced smooth muscle cell mitogenesis. The class given is cell-based, rat. The note with it: FIG. 3. How it is done:
Primary smooth muscle cell cultures were prepared from the thoracic and abdominal aorta of 2-3 month old Wistar rats essentially using the procedure of Reilly, C. F. (1990) J. Cell Physiol. 142,342 (1990). After removing as much fat and adherent adventitia as possible with scissors and forceps, the tissue was finely minced, enzymatically dissociated with successive 37° C. incubations in HBSS containing collagenase (Sigma, 0.5 mg/ml for 15 min.), then elastase (Sigma, 0.125 mg/ml for 30 min.) and again collagenase (60 min.). […] Cells were grown in Dulbecco's Minimal Essential Medium (DMEM) containing 10% fetal bovine serum (FBS) with antibiotics. […]
as §1

Experiment [3] deals with human venous endothelial cells. As to the kind of experiment: Release of mitogens from endothelial cells stimulated with factor Xa; conditioned media tested for mitogenic activity on 3T3 cells. The format is cell-based. The note with it: for Mitogenic units of EC conditioned media: 1 unit = activity induced by 2 ng/ml PDGF, FXa 1 nM, ATS 5 nM, PDGF 2 ng/ml, 16 h. The procedure: Confluent primary cultures or subcultures (passages 1 and 2) of human venous endothelial cells (EC) were cultured in serum-free Dulbecco's Minimal Essential Medium (DMEM)+0.1% bovine serum albumin (BSA) in the presence of human or bovine factor Xa(1 nM) (Sigma Chemical Co., St. Louis, Mo.), antistasin (ATS) (0.5-5.0 nM), or both. Control cultures were untreated or received 2 ng/ml platelet-derived growth factor (PDGF) (Sigma Chemical Co., St. Louis, Mo.). After 16 hours incubation at 37° C., the conditioned media (CM) from the test and control cell cultures were collected and tested for mitogenic activity (MIT) using confluent NIH 3T3 cells (CCL 163, American Type Culture Collection, Rockville, Md.).
Primary cultures of EC derived from umbilical cord veins were prepared and grown according to a protocol provided to by Dr. Gwendolyn Stewart (Temple University Thrombosis Center, Phila., Pa.). After washing the lumen of the vein twice with DMEM, EC were dissociated with a solution containing 0.05% trypsin and 0.1% collagenase. Thirty minutes later, the venous content and the perfused DMEM (35 ml) was collected into a fifty ml centrifuge tube containing 3.5 ml of bovine serum and the mixture spun at 900 rpm for 10 minutes. The supernate was discarded and the cell pellet resuspended in 3.0 ml DMEM containing 20% fetal bovine serum (FBS) (heat inactivated at 56° C. for 30 minutes), 90 μg heparin per ml, 5 μg fibronectin per ml, and 60 μg endothelial growth factor per ml (cDMEM), and seeded into 35 mm tissue culture dishes. After 24 hours of incubation at 37 °C, 5% CO2, the culture was washed 3-4 times with DMEM and incubated 2-4 days until the cells were confluent. The monolayers were washed with phosphate buffered saline (PBS) and cultured in DMEM with 0.1% BSA in the presence and absence of 1 nM factor Xa, 5 nM antistasin, or a mixture of both. As positive and negative controls, separated monolayers were incubated with the medium plus 2 ng/ml PDGF or with the medium alone. After 16 hours of incubation at 37° C., conditioned media (CM) were collected, centrifuged at 4000×g for 10 minutes, and the supernate was collected and stored at 4° C. until use. The mitogenic activity of the CM was tested by measuring the incorporation of [^3 H] thymidine into cultures of Balb 3T3 cells. For this purpose, wells were seeded with 2×10^4 3T3 cells suspended in 1 ml DMEM with 10% FBS. Once confluent (5-7 days of culture), CM were added and cells incubated for 18 hours at 37° C. after which cultures were washed with warm DMEM, tritiated thymidine added (1 μCi/ml) and cells incubated for 4 hours at 37° C. After removing the medium, the culture was washed twice with cold 5% trichloroacetic acid (TCA), and lysed with 0.8 ml 0.25M NaOH. The lysate was transferred to vials with scintillation fluid and radioactivity monitored in a beta radiation counter.
One unit of mitogenic activity is defined as the mitogenic activity induced by 2 ng/ml PDGF. Each assay was performed in triplicate and the standard deviation was less than 10%.

The next experiment has as its system 3T3 cells. The experiment can be described thus: Direct antistasin treatment of 3T3 cells, proliferation. The format is cell-based.
In experiment [4] the test system is rat aortic smooth muscle cells. As to the kind of experiment: Mitogenic activity of blood coagulation factors on smooth muscle cells (3H-thymidine incorporation). The note with it: 24 h. The format is cell-based, Wistar rats. (Dividing cells build labelled thymidine or BrdU into new DNA.)
Description: Primary smooth muscle cell cultures were prepared from the thoracic and abdominal aorta of 2-3 month old Wistar rats essentially using the procedure of Reilly, C. […] After removing as much fat and adherent adventitia as possible with scissors and forceps, the tissue was finely minced, enzymatically dissociated with successive 37° C. incubations in HBSS containing collagenase (Sigma, 0.5 mg/ml for 15 min.), then elastase (Sigma, 0.125 mg/ml for 30 min.) and again collagenase (60 min.). […] Cells were grown in Dulbecco's Minimal Essential Medium (DMEM) containing 10% fetal bovine serum (FBS) with antibiotics. […] Using a monoclonal antibody to alpha actin (Sigma Chemical Company, St. Louis, Mo.), about 60-80% (preparation dependent) of these confluent cells stained positive for this smooth muscle cell marker. After 10 days in culture, the cells were dissociated with trypsinethylene diamine tetraacetate (EDTA), split 1:10 and subcultured in the above medium. At confluence the cells were transferred to DMEM containing 0.1 % FBS for a 24 hour period before using them for assay. All smooth muscle cells used in these studies were from passages 1-4.
The prepared rat smooth muscle cells were seeded in Falcon 24 multiwell plates (10^5 cells/well) and cultured at 37° C., in a 5% CO2 atmosphere in 1 ml DMEM containing 10% FBS. […] At the end of the incubation, the cultures were washed twice with DMEM and pulsed for two hours in ^3 H-thymidine (1 μCi/ml) in DMEM containing 0.1% BSA. The cells were washed twice with cold phosphate buffered saline (PBS), treated twice with 5% trichloroacetic acid (TCA) for 5 min., dissolved with 0.25N NaOH (0.4 ml) incubated at 37° C. for 60 min., mixed with 5 ml Ecolume (ICN Biomedicals, Costa Mesa, Calif.), and their radioactivity determined in a scintillation counter. All assays were in triplicate. Error bars represent the standard error of the mean (S.E.M. with n=6 or more experiments). Smooth muscle cell mitogenic activity produced by exogenous agents is expressed as % relative mitogenic activity which is defined as: [formula] […]
In experiment [5] the test system is rat aortic smooth muscle cells. As to the kind of experiment: Comparison of 3H-thymidine incorporation and cell proliferation in rat aortic smooth muscle cell cultures. The format is cell-based. The settings on record: 10 mM factor, 36 hours treatment. How it is done:
Rat smooth muscle cells were incubated with different blood coagulation factors to determine ^3 H-thymidine incorporation and effect cell number. […] At the end of the incubation, half of the groups were pulsed with ^3 H-thymidine for two hours while their identically treated counterparts were dissociated with trypsin and the cells (smooth muscle cells on the basis of a reddish-brown staining pattern with Masson's trichome) were counted. Although there was not a direct correspondence between the per cent increase in thymidine incorporation and cell number, the increase in DNA synthesis correlated well with an increase in cell number. bovine factor Xa increased cell proliferation in a dose dependent manner. 10 mM Protein S induced greater cell proliferation than 50 mM bovine factor Xa.

Where [6] appears, read: FIG. 1, 10 nM coagulation factor.

Four molecules from patent US5385885A, “Inhibition of smooth muscle cell proliferation by antistasin and tick anticoagulant peptide” (priority 1991, dated 1995) can be followed below.

B1: antistasin (protein, UniProt P15358 18-136, looked up)
Antistasin: QGPFGPGCEEAGCPEGSACNIITDRCTCSGVRCRMHCPHGFQRSRYGCEFCKCRLEPMKATCDISECPEGMMCSRLTNKCDCKIDINCRKTCPNGLKRDKLGCEYCECRPKRKLIPRLS
notes: 119-amino acid protein isolated from the salivary glands of the Mexican leech Haementeria officinalis
B1: the “Relative mitogenic activity above control” value with smooth muscle cells [1] (10 nM fXa and 5 nM antistasin) is “about 23%”; in the experiment on smooth muscle cells [1] (10 nM fXa and 10-20 nM antistasin), “about 2%”; in the experiment on smooth muscle cells [1] (10 nM fXa with 40-50 nM antistasin), “near zero”. The “Inhibition of relative mitogenic activity of bovine factor X” value in the experiment on smooth muscle cells [2] (10 nM bovine factor X with 50 nM antistasin) is recorded as “not significantly inhibited”. In addition, the “Inhibition of relative mitogenic activity of protein S” value in the experiment with smooth muscle cells [2] (protein S with 50 nM antistasin) is “abolished”. The “Mitogenic units of EC conditioned media” value in experiment [3] (EXP 1) is 0.74 mitogenic units; in experiment [3] (EXP 2), 0.42 mitogenic units; in experiment [3] (EXP 3), 0.70 mitogenic units; in experiment [3] (EXP 4), 0.36 mitogenic units. Also, the “Release of mitogens from endothelial cells” value in experiment [3] (antistasin 0.5-10 nM) is “blocks the release of mitogens”. For the same molecule, in the experiment with 3T3 cells, the “Effect on proliferation of 3T3 cells” value is “no significant effect”.

B2: Factor IX: bovine coagulation factor IX (protein, UniProt P00741 26-462, looked up)
Coagulation factor IX: AECTVFLDRENATKILHRPKRYNSGKLEEFVRGNLERECKEEKCSFEEAREVFENTEKTTEFWKQYVDGDQCESNPCLNGGMCKDDINSYECWCQAGFEGTNCELDATCSIKNGRCKQFCKRDTDNKVVCSCTDGYRLAEDQKSCEPAVPFPCGRVSVSHISKKLTRAETIFSNTNYENSSEAEIIWDNVTQSNQSFDEFSRVVGGEDAERGQFPWQVLLHGEIAAFCGGSIVNEKWVVTAAHCIKPGVKITVVAGEHNTEKPEPTEQKRNVIRAIPYHSYNASINKYSHDIALLELDEPLELNSYVTPICIADRDYTNIFLKFGYGYVSGWGKVFNRGRSASILQYLKVPLVDRATCLRSTKFSIYSHMFCAGYHEGGKDSCQGDSGGPHVTEVEGTSFLTGIISWGEECAMKGKYGIYTKVSRYVNWIKEKTKLT
Turning to B2, the “% relative mitogenic activity above control” value in experiment [4] (setting [6]) is reported as “only weakly mitogenic”.

B3: platelet derived growth factor BB: recombinant platelet-derived growth factor-BB, a good mitogen for smooth muscle cells (protein, UniProt P01127 82-190, looked up)
Platelet-derived growth …: SLGSLTIAEPAMIAECKTRTEVFEISRRLIDRTNANFLVWPPCVEVQRCSGCCNNRNVQCRPTQVQLRPVQVRKIEIVRKKPIFKKATVTLEDHLACKCETVAAARPVT
modifications: homodimer
notes: recombinant platelet-derived growth factor-BB, a good mitogen for smooth muscle cells
Consider B3, for which, in experiment [4] (FIG. 1, 0.1 nM PDGF-BB), the “% relative mitogenic activity above control” value is reported as “about 63%”.

B4: protein S: human protein S, coagulation cascade factor (Enzyme Res. Labs) (protein, UniProt P07225 42-676, looked up)
Vitamin K-dependent protein S: ANSLLEETKQGNLERECIEELCNKEEAREVFENDPETDYFYPKYLVCLRSFQTGLFTAARQSTNAYPDLRSCVNAIPDQCSPLPCNEDGYMSCKDGKASFTCTCKPGWQGEKCEFDINECKDPSNINGGCSQICDNTPGSYHCSCKNGFVMLSNKKDCKDVDECSLKPSICGTAVCKNIPGDFECECPEGYRYNLKSKSCEDIDECSENMCAQLCVNYPGGYTCYCDGKKGFKLAQDQKSCEVVSVCLPLNLDTKYELLYLAEQFAGVVLYLKFRLPEISRFSAEFDFRTYDSEGVILYAESIDHSAWLLIALRGGKIEVQLKNEHTSKITTGGDVINNGLWNMVSVEELEHSISIKIAKEAVMDINKPGPLFKPENGLLETKVYFAGFPRKVESELIKPINPRLDGCIRSWNLMKQGASGIKEIIQEKQNKHCLVTVEKGSYYPGSGIAQFHIDYNNVSSAEGWHVNVTLNIRPSTGTGVMLALVSGNNTVPFAVSLVDSTSEKSQDILLSVENTVIYRIQALSLCSDQQSHLEFRVNRNNLELSTPLKIETISHEDLQRQLAVLDKAMKAKVATYLGGLPDVPFSATPVNAFYNGCMEVNINGVQLDLDEAISKHNDIRAHSCPSVWKKTKNS
As for B4, the “% relative mitogenic activity above control” value in experiment [4] (setting [6]) is “about 122%”. Besides, the “SMC Number” value in experiment [5] is on record as 6.5 × 10^5. Moreover, the “CPM Incorporated (3H-thymidine)” value in experiment [5] (2 h pulse) is 30,074 ± 2,837 CPM.
